In patent publication US20150368300A1, “COMPOSITIONS AND METHODS RELATING TO […] DOT1L RECRUITMENT BY MLL-FUSION PROTEINS” (published 2015):
Where no end group is shown, it is not given here. fluorescein = fluorescein label, coupled through a lysine and two β-alanine spacer

What was measured:
DOT1L (826-937) (human) = target: T1, DOT1L (826-937) (human) (UniProt Q8TEK3); test: SPR; DOT1L construct immobilised on CM5 chip
T1 sequence: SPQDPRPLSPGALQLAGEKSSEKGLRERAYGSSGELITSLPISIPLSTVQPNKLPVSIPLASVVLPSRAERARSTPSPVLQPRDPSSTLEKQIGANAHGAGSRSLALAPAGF

DOT1L (826-958) (human) = target: T2, DOT1L (826-958) (human) (UniProt Q8TEK3); test: SPR; DOT1L construct immobilised on CM5 chip
T2 sequence: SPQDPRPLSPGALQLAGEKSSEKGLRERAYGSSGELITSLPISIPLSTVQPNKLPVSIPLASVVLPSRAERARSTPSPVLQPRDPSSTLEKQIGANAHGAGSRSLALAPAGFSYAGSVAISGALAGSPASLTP

DOT1L (854-1095) (human) = DOT1L (854-1095) (human) (UniProt Q8TEK3); test: SPR; DOT1L construct immobilised on CM5 chip
DOT1L (854-925) (human) = target: T3, DOT1L (854-925) (human) (UniProt Q8TEK3); test: SPR; DOT1L construct immobilised on CM5 chip
T3 sequence: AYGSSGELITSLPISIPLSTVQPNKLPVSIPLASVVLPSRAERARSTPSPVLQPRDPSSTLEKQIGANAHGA

DOT1L (925-1095) (human) [1] = target: DOT1L (925-1095) (human) (UniProt Q8TEK3); test: SPR; DOT1L construct immobilised on CM5 chip
[2] = target: Mocr-DOT1L (826-1095) (human) (UniProt Q8TEK3); test: SPR; DOT1L construct immobilised on CM5 chip
[3] = target: Flag-tagged full length human DOT1L protein, DOT1L (1-1537) (human) (UniProt Q8TEK3); test: SPR; full length Flag-DOT1L captured on chip
[4] = target: Flag-tagged full length human DOT1L protein, DOT1L (1-1537) (human) (UniProt Q8TEK3); test: SPR; Flag-DOT1L captured on anti-Flag CM5 chip, AF9 as analyte
DOT1L (925-1095) (human) [5] = target: DOT1L (925-1095) (human) (UniProt Q8TEK3); test: SPR; DOT1L (925-1095) immobilised, compared with the longer constructs
[6] = target: Flag-tagged full length human DOT1L protein, DOT1L (1-1537) (human) (UniProt Q8TEK3); test: SPR; Flag-DOT1L captured on anti-Flag CM5 chip, ENL as analyte
[7] = target: T4, GB1-AF9 (497-568) (human) (UniProt P42568); test: FP saturation; 10 nM Flu-DOT1L titrated with GB1-AF9
T4 sequence: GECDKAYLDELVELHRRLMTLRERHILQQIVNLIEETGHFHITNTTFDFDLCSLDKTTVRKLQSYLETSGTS

[8] = target: T5, MBP-ENL (489-559) (Homo sapiens (Human)) (UniProt Q03111); test: FP saturation; 10 nM Flu-DOT1L titrated with MBP-ENL
T5 sequence: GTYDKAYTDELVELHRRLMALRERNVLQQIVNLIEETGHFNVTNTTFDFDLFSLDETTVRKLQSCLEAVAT

[9] = target: T4, GB1-AF9 (497-568) (human); test: FP saturation; 5 nM labeled peptide titrated with GB1-AF9
[10] = target: T5, MBP-ENL (489-559) (Homo sapiens (Human)); test: ITC; peptide (400 µM) into MBP-ENL (489-559) (80 µM)
[11] = target: T4, GB1-AF9 (497-568) (human); test: competitive FP; displacement of N-Flu-DOT1L from GB1-AF9
[12] = target: T4, GB1-AF9 (497-568) (human); test: competitive FP; displacement of Flu-DOT1L from GB1-AF9
[13] = target: T5, MBP-ENL (489-559) (Homo sapiens (Human)); test: ITC
[14] = target: T6, AF9 (497-568), recombinant C-terminal domain of human AF9 (human, UniProt P42568); test: competitive SPR
[15] = target: T7, ENL (489-559), recombinant C-terminal domain of ENL (Homo sapiens (Human), UniProt Q03111); test: competitive SPR
T7 sequence: T5 sequence

[16] = target: T5, MBP-ENL (489-559) (Homo sapiens (Human)); test: ITC; peptide (500 µM) into MBP-ENL (110 µM)
[17] = target: T6, AF9 (497-568), recombinant C-terminal …; test: competitive SPR; peptide pre-incubated with AF9 (500 nM), over immobilised Mocr-DOT1L (826-1095)
[18] = target: T7, ENL (489-559), recombinant C-terminal …; test: competitive SPR; peptide pre-incubated with ENL (500 nM), over immobilised Mocr-DOT1L (826-1095)
Experimental: Solution competitive SPR based assay was performed to determine the IC₅₀ values of DOT1L peptides. […] IC₅₀ values were determined by non-linear least squares analysis using Graph Pad Prism 5.0 software.

[19] = target: Mocr-DOT1L (826-1095) (human) (UniProt Q8TEK3); test: SPR; Mocr-DOT1L (826-1095) immobilised

B1: AF9 (497-568), recombinant C-terminal domain of human AF9 (protein)
chain: T4 sequence
Question: What does the source list for B1?
Answer: Kd (DOT1L (826-937) (human)): 0.078 µM; Kd (DOT1L (826-958) (human)): 0.092 µM; Kd (DOT1L (854-1095) (human)): 0.135 µM; Kd (DOT1L (854-925) (human)): 0.042 µM; Kd (DOT1L (925-1095) (human) [1]): 1.82 µM; Kd [2]: 0.111 µM; fold higher affinity (AF9 against ENL) [3]: 6 fold; Kd [4]: 0.033 µM; fold decrease in binding affinity (DOT1L (925-1095) (human) [5]): 50 fold

B2: ENL (489-559), recombinant C-terminal domain of ENL (protein)
chain: T5 sequence
Question: Which results are given for B2?
Answer: Kd (DOT1L (826-937) (human)): 0.081 µM; Kd (DOT1L (826-958) (human)): 0.122 µM; Kd (DOT1L (854-1095) (human)): 0.148 µM; Kd (DOT1L (854-925) (human)): 0.09 µM; Kd (DOT1L (925-1095) (human) [1]): 6.22 µM; Kd [2]: 0.238 µM; Kd [6]: 0.206 µM; fold decrease in binding affinity (DOT1L (925-1095) (human) [5]): 30 fold

B3: N-Flu-DOT1L, fluorescein-labeled DOT1L 10-mer peptide (N-terminal label) (peptide)
peptide: LPISIPLSTV-NH2
modifications: not fully specified (N-terminus)
Question: B3 was tested. Which Kd [7] did it give?
Answer: 0.065 µM

Question: What about the Kd [8] of the same binder?
Answer: 0.495 µM

Question: And the Kd [9]?
Answer: 0.095 µM

B4: DOT1L 16 mer peptide, Ac-…-NH2 (a.a. 865-880) (peptide)
peptide: Ac-LPISIPLSTVQPNKLP-NH2
Question: B4 was tested. Which Kd [10] did it give?
Answer: 0.9 µM

Question: What about the Ki [11] of the same binder?
Answer: 0.08 µM

B5: DOT1L 10mer peptide, Ac-…-NH2 (a.a. 865-874) (peptide)
peptide: Ac-LPISIPLSTV-NH2
Question: Which results are given for B5?
Answer: Kd [10]: 1.1 µM; Ki [11]: 0.068 µM

B6: AF4 recombinant protein (749-775 residues) (peptide)
chain: LSPLRDTPPPQSLMVKITLDLLSRIPQ
Question: With B6 as the binder, how does the IC50 [12] read?
Answer: 0.56 µM

B7: AF4 14 mer peptide, Ac-…-NH2 (peptide)
peptide: Ac-LMVKITLDLLSRIP-NH2
Question: For B7, which IC50 [12] is on record?
Answer: 0.28 µM

B8: DOT1L 7 mer peptide, Ac-LPISIPL-NH2 (865-871) (peptide)
peptide: Ac-LPISIPL-NH2
Question: With B8 as the binder, how does the fold lower affinity against the 16-mer and 10-mer DOT1L peptides [13] read?
Answer: 3 fold

Question: What about the “fold reduction in binding against the 10-mer peptide” value [14] of the same binder?
Answer: 8 fold

Question: What about the “fold reduction in binding against the 10-mer peptide” value [15] of the same binder?
Answer: 5 fold

Question: And the Kd [16]?
Answer: 3.4 µM

Question: What about the IC50 [17] of the same binder?
Answer: 3.9 µM

Question: What about the IC50 [18] of the same binder?
Answer: 7.3 µM

B9: ENL H1 (489-544) (protein)
chain: GTYDKAYTDELVELHRRLMALRERNVLQQIVNLIEETGHFNVTNTTFDFDLFSLDE
Question: For B9, which Kd [19] is on record?
Answer: 2.8 µM

Question: What about the fold decrease in binding affinity against the intact ENL C-terminal domain [19] of the same binder?
Answer: 10 fold

B10: ENL H2 (523-559) (peptide)
chain: EETGHFNVTNTTFDFDLFSLDETTVRKLQSCLEAVAT
Question: Which results are given for B10?
Answer: Kd [19]: 14.6 µM; fold decrease in binding affinity against the intact ENL C-terminal domain [19]: 30 fold

B11: C-Flu-DOT1L, fluorescently labeled DOT1L-10 mer peptide (C-terminal label) (peptide)
peptide: Ac-LPISIPLSTV-fluorescein
modifications: also: C-terminal fluorescein label, attachment not given here
Question: B11 was tested. Which Kd [9] did it give?
Answer: 0.127 µM

B12: T873A, alanine mutated DOT1L 10mer peptide (peptide)
peptide: Ac-LPISIPLSAV-NH2
Question: How did the Ki [11] turn out when B12 was run?
Answer: 0.203 µM

Question: And the IC50 [17]?
Answer: 0.058 µM

Question: What about the IC50 [18] of the same binder?
Answer: 0.36 µM

B13: DOT1L 10mer peptide, Ac-LPISIPLSTV-NH2 (a.a. 865-874) (peptide)
peptide: Ac-LPISIPLSTV-NH2
Question: What does the source list for B13?
Answer: IC50 [17]: 0.49 µM; IC50 [18]: 1.34 µM

B14: L865A, alanine mutated DOT1L 10mer peptide (peptide)
peptide: Ac-APISIPLSTV-NH2
Question: What does the source list for B14?
Answer: IC50 [17]: 98.5 µM; IC50 [18]: 27.5 µM

B15: P866A, alanine mutated DOT1L 10mer peptide (peptide)
peptide: Ac-LAISIPLSTV-NH2
Question: With B15 as the binder, how does the IC50 [17] read?
Answer: 3.3 µM

Question: What about the IC50 [18] of the same binder?
Answer: 6.5 µM

B16: I867A, alanine mutated DOT1L 10mer peptide (peptide)
peptide: Ac-LPASIPLSTV-NH2
Question: B16 was tested. Which IC50 [17] did it give?
Answer: 57.2 µM

Question: And the IC50 [18]?
Answer: > 200 µM

B17: S868A, alanine mutated DOT1L 10mer peptide (peptide)
peptide: Ac-LPIAIPLSTV-NH2
Question: For B17, which IC50 [17] is on record?
Answer: 5.3 µM

Question: What about the IC50 [18] of the same binder?
Answer: 29.1 µM

B18: I869A, alanine mutated DOT1L 10mer peptide (peptide)
peptide: Ac-LPISAPLSTV-NH2
Question: Which IC50 [17] does the source give for B18 here?
Answer: > 200 µM

Question: What about the IC50 [18] of the same binder?
Answer: > 200 µM

B19: P870A, alanine mutated DOT1L 10mer peptide (peptide)
peptide: Ac-LPISIALSTV-NH2
Question: For B19, which IC50 [17] is on record?
Answer: 2.8 µM

Question: What about the IC50 [18] of the same binder?
Answer: 11.6 µM

B20: L871A, alanine mutated DOT1L 10mer peptide (peptide)
peptide: Ac-LPISIPASTV-NH2
Question: For B20, which IC50 [17] is on record?
Answer: 30.7 µM

Question: What about the IC50 [18] of the same binder?
Answer: 147 µM

B21: S872A, alanine mutated DOT1L 10mer peptide (peptide)
peptide: Ac-LPISIPLATV-NH2
Question: Which results are given for B21?
Answer: IC50 [17]: 0.55 µM; IC50 [18]: 2.8 µM

B22: V874A, alanine mutated DOT1L 10mer peptide (peptide)
peptide: Ac-LPISIPLSTA-NH2
Question: Which IC50 [17] does the source give for B22 here?
Answer: 0.7 µM

Question: And the IC50 [18]?
Answer: 4.2 µM

B23: DOT1L 16 mer peptide, Ac-LPISIPLSTVQPNKLP-NH2 (a.a. 865-880) (peptide)
peptide: Ac-LPISIPLSTVQPNKLP-NH2
Question: Which IC50 [17] does the source give for B23 here?
Answer: 0.32 µM

Question: What about the IC50 [18] of the same binder?
Answer: 1.56 µM

B24: AF4 14 mer peptide, Ac-LMVKITLDLLSRIP-NH2 (peptide)
peptide: Ac-LMVKITLDLLSRIP-NH2
Question: B24 was tested. Which IC50 [17] did it give?
Answer: 0.2 µM

Question: What about the IC50 [18] of the same binder?
Answer: 0.43 µM
